Assay results from the Immune Epitope Database (IEDB).

How the values were obtained:
HLA-B*15:01 [1] = assay: IEDB peptide-MHC binding, purified MHC/competitive/radioactivity; filed as Kd, often an IC50 or EC50 that approximates it; ≥ and ≤ were set here for values at or beyond the usual limits of such assays
HLA-A*32:01 = assay: as above
HLA-B*08:01 = assay: as above; settings: source organism: Dengue virus 3 Martinique/1243/1999
HLA-B*15:01 [2] = assay: IEDB peptide-MHC binding, purified MHC/competitive/fluorescence; filed as Kd, often an IC50 or EC50 that approximates it; ≥ and ≤ were set here for values at or beyond the usual limits of such assays
HLA-A*26:01 = assay: as above; settings: source organism: Escherichia coli O139:H28 str. E24377A
HLA-B*18:01 = assay: IEDB peptide-MHC binding, purified MHC/competitive/radioactivity; filed as Kd, often an IC50 or EC50 that approximates it; ≥ and ≤ were set here for values at or beyond the usual limits of such assays
HLA-B*40:01 = assay: as above
HLA-B*40:02 = assay: as above
HLA-B*44:02 = assay: as above
HLA-B*44:03 = assay: as above
HLA-B*45:01 = assay: as above
HLA-A*23:01 = assay: as above
HLA-A*24:02 = assay: as above
HLA-B*35:01 = assay: as above; settings: source organism: Dengue virus 3 Sri Lanka/1266/2000
HLA-B*53:01 = assay: as above; settings: source organism: Dengue virus 3 Sri Lanka/1266/2000
HLA-A*02:01 [3] = assay: as above
HLA-A*02:03 = assay: as above; settings: source organism: Homo sapiens
HLA-A*68:02 = assay: as above; settings: source organism: Homo sapiens
HLA-A*02:01 [4] = assay: IEDB peptide-MHC binding, purified MHC/competitive/fluorescence; filed as Kd, often an IC50 or EC50 that approximates it; ≥ and ≤ were set here for values at or beyond the usual limits of such assays
HLA-A*01:01 = assay: IEDB peptide-MHC binding, purified MHC/competitive/radioactivity; filed as Kd, often an IC50 or EC50 that approximates it; ≥ and ≤ were set here for values at or beyond the usual limits of such assays; settings: source organism: Dengue virus 2 Jamaica/1409/1983
[5] = source organism: Dengue virus 3 Martinique/1243/1999
[6] = source organism: Vaccinia virus WR
[7] = source organism: Lymphocytic choriomeningitis virus (strain Armstrong)
[8] = source organism: SARS coronavirus Tor2
[9] = source organism: Dengue virus 3 Sri Lanka/1266/2000
[10] = source organism: Mammarenavirus machupoense
[11] = source organism: Dengue virus 1 Brazil/97-11/1997
[12] = source organism: Mammarenavirus juninense

IQNSGGTSI gave a Kd (HLA-B*15:01 [1]; [5]) of 25.7 nM.

LLWFLTGTF showed a Kd (HLA-A*32:01; [6]) of 93 nM and a Kd (HLA-B*15:01 [1]; [6]) of 0.776 nM.

In the case of IVIGVGNSAL, the Kd (HLA-B*15:01 [1]; source organism: Dengue virus 4 Dominica/814669/1981) is reported as 52.9 nM.

LQWIASAIVL showed a Kd (HLA-B*08:01) of 4.97 µM and a Kd (HLA-B*15:01 [1]; [5]) of 6.43 nM.

In the case of RSSMKLLSY, the Kd (HLA-B*15:01 [2]; source organism: Yersinia pestis Nepal516) is reported as 88.6 nM.

Work on KLHSGVDVF yielded a Kd (HLA-B*15:01 [1]; source organism: Dengue virus 4 Philippines/H241/1956) of 7.72 nM.

DICSGLQQL gave a Kd (HLA-A*26:01) of no less than 20 µM.

In the case of NSKNTSMSF, the Kd (HLA-B*15:01 [1]; [5]) is reported as 526 nM.

For FENAILSMTI, the Kd (HLA-B*18:01; [7]) was 126 nM, the Kd (HLA-B*40:01; [7]) was 1450 nM and the Kd (HLA-B*40:02; [7]) was 6.31 nM. It also gave a Kd (HLA-B*44:02; [7]) of 237 nM, a Kd (HLA-B*44:03; [7]) of 388 nM and a Kd (HLA-B*45:01; [7]) of 3020 nM.

In the case of SEFSSLPSYA, the Kd (HLA-B*18:01; [8]) is reported as 1060 nM, the Kd (HLA-B*40:01; [8]) is reported as 431 nM and the Kd (HLA-B*40:02; [8]) is reported as 22.4 nM. It also gave a Kd (HLA-B*44:02; [8]) of 343 nM, a Kd (HLA-B*44:03; [8]) of 13.1 nM and a Kd (HLA-B*45:01; [8]) of 25.3 nM.

Work on MMILPAALAF yielded a Kd (HLA-A*23:01; [9]) of 119 nM, a Kd (HLA-A*24:02; [9]) of 916 nM and a Kd (HLA-B*15:01 [1]; [9]) of 2.41 nM. It also gave a Kd (HLA-B*35:01) of 1490 nM and a Kd (HLA-B*53:01) of 6.48 µM.

ILRHSTAHL showed a Kd (HLA-B*15:01 [2]; source organism: Bacillus anthracis str. A0488) of 142 nM.

With QNGALAINTF the Kd (HLA-B*15:01 [2]; source organism: Human herpesvirus 4 type 2) was no less than 20000 nM.

Sequence KEKAPDVGVL has a Kd (HLA-B*18:01; [10]) of no less than 70400 nM, a Kd (HLA-B*40:01; [10]) of 1050 nM and a Kd (HLA-B*40:02; [10]) of 64.9 nM. It also gave a Kd (HLA-B*44:02; [10]) of 2410 nM, a Kd (HLA-B*44:03; [10]) of no less than 62100 nM and a Kd (HLA-B*45:01; [10]) of no less than 30900 nM.

In the case of MELPTGVHA, the Kd (HLA-B*18:01; [8]) is reported as 18000 nM, the Kd (HLA-B*40:01; [8]) is reported as no less than 24900 nM and the Kd (HLA-B*40:02; [8]) is reported as 2740 nM. The Kd (HLA-B*44:02; [8]) was 7800 nM, the Kd (HLA-B*44:03; [8]) was 13800 nM and the Kd (HLA-B*45:01; [8]) was 78.9 nM.

CEEGKLCYLT gave a Kd (HLA-B*18:01; [10]) of 14100 nM, a Kd (HLA-B*40:01; [10]) of no less than 69500 nM and a Kd (HLA-B*40:02; [10]) of 8090 nM. For the same sequence, the Kd (HLA-B*44:02; [10]) was 13200 nM, the Kd (HLA-B*44:03; [10]) was 16200 nM and the Kd (HLA-B*45:01; [10]) was 1600 nM.

In the case of ELRLLIHQSL, the Kd (HLA-A*02:01 [3]; source organism: Homo sapiens) is reported as 1510 nM, the Kd (HLA-A*02:03) is reported as 1580 nM and the Kd (HLA-A*68:02) is reported as 1130 nM.

In the case of MEVQSLAMST, the Kd (HLA-B*18:01; [8]) is reported as 969 nM, the Kd (HLA-B*40:01; [8]) is reported as 2060 nM and the Kd (HLA-B*40:02; [8]) is reported as no less than 20100 nM. For the same sequence, the Kd (HLA-B*44:02; [8]) was 7210 nM, the Kd (HLA-B*44:03; [8]) was 951 nM and the Kd (HLA-B*45:01; [8]) was 259 nM.

Sequence GILKSILKV has a Kd (HLA-A*02:01 [4]; source organism: Lassa virus Josiah) of 39.1 nM.

NAHKLILSG showed a Kd (HLA-B*15:01 [1]; [6]) of 18100 nM.

Work on VMAFIAFLRF yielded a Kd (HLA-A*23:01; [11]) of 846 nM, a Kd (HLA-A*24:02; [11]) of 901 nM and a Kd (HLA-B*15:01 [1]; [11]) of 62.3 nM.

NEKVAGFAKF showed a Kd (HLA-B*18:01; [8]) of 1560 nM, a Kd (HLA-B*40:01; [8]) of no less than 53700 nM and a Kd (HLA-B*40:02; [8]) of no less than 70800 nM. For the same sequence, the Kd (HLA-B*44:02; [8]) was 37.9 nM, the Kd (HLA-B*44:03; [8]) was 527 nM and the Kd (HLA-B*45:01; [8]) was 18800 nM.

With QEADNMITEM the Kd (HLA-B*18:01; [7]) was 1470 nM, the Kd (HLA-B*40:01; [7]) was 5360 nM and the Kd (HLA-B*40:02; [7]) was 124 nM. The Kd (HLA-B*44:02; [7]) was 224 nM, the Kd (HLA-B*44:03; [7]) was 813 nM and the Kd (HLA-B*45:01; [7]) was 1190 nM.

LLLSINSSF showed a Kd (HLA-A*32:01; source organism: Variola virus) of 2090 nM and a Kd (HLA-B*15:01 [1]; source organism: Variola virus) of 0.883 nM.

With FERDISNVPF the Kd (HLA-B*18:01; [8]) was 32 nM, the Kd (HLA-B*40:01; [8]) was 20.3 nM and the Kd (HLA-B*40:02; [8]) was 1950 nM. The Kd (HLA-B*44:02; [8]) was 578 nM, the Kd (HLA-B*44:03; [8]) was 629 nM and the Kd (HLA-B*45:01; [8]) was 6400 nM.

In the case of EELIKLRFWF, the Kd (HLA-B*18:01; [12]) is reported as 748 nM, the Kd (HLA-B*40:01; [12]) is reported as no less than 36700 nM and the Kd (HLA-B*40:02; [12]) is reported as 10400 nM. It also gave a Kd (HLA-B*44:02; [12]) of 680 nM, a Kd (HLA-B*44:03; [12]) of 132 nM and a Kd (HLA-B*45:01; [12]) of 9880 nM.

QMSSGNLLF was tested, and the Kd (HLA-A*01:01) was 4.39 µM and the Kd (HLA-B*15:01 [1]; source organism: Dengue virus 2 Jamaica/1409/1983) was 6.83 nM.

For SEAFLIGANY, the Kd (HLA-B*18:01; [8]) was 4.42 nM, the Kd (HLA-B*40:01; [8]) was no less than 10000 nM and the Kd (HLA-B*40:02; [8]) was 348 nM. For the same sequence, the Kd (HLA-B*44:02; [8]) was 8.47 nM, the Kd (HLA-B*44:03; [8]) was 3.75 nM and the Kd (HLA-B*45:01; [8]) was 578 nM.

In the case of QALTDLGLI, the Kd (HLA-A*02:01 [3]; source organism: Lassa virus GA391) is reported as 3570 nM.

RIMAWTVVNSI showed a Kd (HLA-A*02:01 [4]; source organism: Influenza A virus (A/chicken/California/1002a/00(H6N2))) of no more than 1 nM.
